According to doi:10.1101/2022.03.06.483192, “Structural maturation of SYCP1-mediated meiotic chromosome synapsis through conformational remodelling by molecular adapter SYCE3” (bioRxiv, 2022):
Numbering of substitutions follows the chain as printed. Where “and” joins values, the source holds several entries; their conditions need not be identical. Equal entries are not always repeated.

B1: SYCP1 αCore-ΔNtip (domain or fragment, UniProt Q15431 112-783, looked up)
chain: EAEKIKKWKVSTEAELRQKESKLQENRKIIEAQRKAIQELQFGNEKVSLKLEEGIQENKDLIKENNATRHLCNLLKETCARSAEKTKKYEYEREETRQVYMDLNNNIEKMITAFEELRVQAENSRLEMHFKLKEDYEKIQHLEQEYKKEINDKEKQVSLLLIQITEKENKMKDLTFLLEESRDKVNQLEEKTKLQSENLKQSIEKQHHLTKELEDIKVSLQRSVSTQKALEEDLQIATKTICQLTEEKETQMEESNKARAAHSFVVTEFETTVCSLEELLRTEQQRLEKNEDQLKILTMELQKKSSELEEMTKLTNNKEVELEELKKVLGEKETLLYENKQFEKIAEELKGTEQELIGLLQAREKEVHDLEIQLTAITTSEQYYSKEVKDLKTELENEKLKNTELTSHCNKLSLENKELTQETSDMTLELKNQQEDINNNKKQEERMLKQIENLQETETQLRNELEYVREELKQKRDEVKCKLDKSEENCNNLRKQVENKNKYIEELQQENKALKKKGTAESKQLNVYEIKVNKLELELESAKQKFGEITDTYQKEIEDKKISEENLLEEVEKAKVIADEAVKLQKEIDKRCQHKIAEMVALMEKHKHQYDKIIEERDSELGLYKSKEQEQSSLRASLEIELSNLKAELLSVKKQLEIEREEKEKLKREAKE
notes: SYCP1 α-helical core without the αNtip, amino-acids 112-783; tetramer alone by SEC-MALS; also called SYCP1's full α-helical core, in which αNtips were deleted (amino-acids 112-783); source: E. coli BL21(DE3), purified; alone or in complex with SYCE3
B2: SYCP1αN (domain or fragment, UniProt Q15431 101-362, looked up)
chain: GLSRVYSKLYKEAEKIKKWKVSTEAELRQKESKLQENRKIIEAQRKAIQELQFGNEKVSLKLEEGIQENKDLIKENNATRHLCNLLKETCARSAEKTKKYEYEREETRQVYMDLNNNIEKMITAFEELRVQAENSRLEMHFKLKEDYEKIQHLEQEYKKEINDKEKQVSLLLIQITEKENKMKDLTFLLEESRDKVNQLEEKTKLQSENLKQSIEKQHHLTKELEDIKVSLQRSVSTQKALEEDLQIATKTICQLTEEKETQ
notes: SYCP1 α-helical N-terminal region (αN), amino-acids 101-362; also called SYCP1's full α-helical N-terminal region (amino-acids 101-362); source: E. coli BL21(DE3), purified; alone or co-expressed with SYCE3
B3: SYCE3 12-88 (domain or fragment, UniProt A1L190 12-88, looked up)
chain: DNMLKMLSDLNKDLEKLLEEMEKISVQATWMAYDMVVMRTNPTLAESMRRLEDAFVNCKEEMEKNWQELLHETKQRL
notes: SYCE3 residues 12-88; source: E. coli BL21(DE3), co-expressed with SYCP1αNcore, complex purified
B4: SYCE3 (natural protein, UniProt A1L190 1-88, looked up)
chain: MDDADPEERNYDNMLKMLSDLNKDLEKLLEEMEKISVQATWMAYDMVVMRTNPTLAESMRRLEDAFVNCKEEMEKNWQELLHETKQRL
notes: SYCE3, wild type; dimer alone by SEC-MALS; one chain in the 2:1 complex with SYCP1; also called SYCE3 wild-type; free SYCE3; source: alone or co-expressed with SYCP1 constructs; not shown: His, N-terminal, cleaved
B5: His-SYCE3 (natural protein, UniProt A1L190 1-88, looked up)
chain: B4 chain
notes: SYCE3, wild type; SYCE3 1-88 (human) was cloned for the two-hybrid; also called SYCE3 wild-type (WT); source: E. coli BL21(DE3), co-expressed with MBP fusions; in lysate for pull-downs, co-purified (amylose, anion exchange, SEC); not shown: His, N-terminal, kept
B6: SYCP1αNcore (domain or fragment, UniProt Q15431 206-362, looked up)
chain: ETRQVYMDLNNNIEKMITAFEELRVQAENSRLEMHFKLKEDYEKIQHLEQEYKKEINDKEKQVSLLLIQITEKENKMKDLTFLLEESRDKVNQLEEKTKLQSENLKQSIEKQHHLTKELEDIKVSLQRSVSTQKALEEDLQIATKTICQLTEEKETQ
notes: SYCP1 tetrameric core (αNcore), amino-acids 206-362; tetramer alone by SEC-MALS; two chains in the 2:1 complex with SYCE3; also called SYCP1 tetrameric core; SYCP1αNT; source: E. coli BL21(DE3), purified (amylose, TEV cleavage, anion exchange, SEC); alone or co-expressed with SYCE3; not shown: MBP, N-terminal, cleaved

How the values were obtained:
[1] = biological target: the molecule itself; assay: SEC-MALS; purified proteins or co-expressed, purified complexes at 5-20 mg/ml; Superdex 200 Increase 10/300 GL, 20 mM Tris pH 8.0, 150 mM KCl, 2 mM DTT
SYCP1αNcore [2] = biological target: B6; assay: as above; conditions: both partners purified
SYCP1 αCore-ΔNtip = biological target: B1; assay: as above; conditions: both partners purified
SYCP1αN = biological target: B2; assay: as above; conditions: both partners purified
SYCP1αN ΔNtip = biological target: T1, SYCP1αN ΔNtip (UniProt Q15431 112-362); assay: as above; conditions: both partners purified
T1 construct: SYCP1αN (101-362) with the αNtip (amino-acids 101-111) deleted; also called SYCP1 ΔNtip; source: E. coli BL21(DE3), co-expressed with SYCE3, complex purified
T1 sequence (looked up): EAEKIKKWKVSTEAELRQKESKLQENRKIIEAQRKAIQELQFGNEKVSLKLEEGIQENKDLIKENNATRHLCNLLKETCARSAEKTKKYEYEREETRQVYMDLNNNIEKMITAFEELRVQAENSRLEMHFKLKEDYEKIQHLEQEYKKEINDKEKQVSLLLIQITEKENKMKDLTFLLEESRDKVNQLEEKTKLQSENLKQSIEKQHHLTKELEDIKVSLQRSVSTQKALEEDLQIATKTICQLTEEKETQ

SYCP1αN V105E L109E = biological target: T2, SYCP1αN V105E L109E (UniProt Q15431 101-362, V105E | L109E); assay: as above; conditions: both partners purified
T2 construct: SYCP1αN, amino-acids 101-362, with V105E L109E; source: E. coli BL21(DE3), complex with SYCE3
T2 sequence (looked up): B2 chain with V5E, L9E

[3] = biological target: T3, SYCE2-TEX12core, labelled (UniProt Q6PIF2 57-165; Q9BXU0 49-123, labelled with the Monolith NT Protein Labelling Kit RED (which chain is not told) | labelled with the Monolith NT Protein Labelling Kit RED (which chain is not told)); assay: MST; SYCE3 titrated (1:1 dilutions) into 150 nM labelled SYCE2-TEX12core; Monolith NT.115, premium treated capillaries, excitation and MST power 40 %; apparent; conditions: both partners purified
T3 construct: SYCE2 structural core; TEX12 structural core; source: E. coli BL21(DE3), purified
T3 sequence (looked up) 1: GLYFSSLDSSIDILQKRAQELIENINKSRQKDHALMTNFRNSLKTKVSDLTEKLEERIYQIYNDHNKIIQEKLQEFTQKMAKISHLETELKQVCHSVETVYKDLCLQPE
T3 sequence (looked up) 2: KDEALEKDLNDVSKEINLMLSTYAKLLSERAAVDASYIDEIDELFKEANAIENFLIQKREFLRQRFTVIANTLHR

SYCP1αNcore [4] = biological target: B6; assay: ITC; SYCE3 (400 µM) injected into SYCP1αNcore (70 µM); 30°C; 25 mM Tris pH 8.0, 250 mM KCl, 2 mM DTT; apparent; conditions: both partners purified
MBP-SYCP1αNcore = biological target: T4, MBP-SYCP1αNcore (UniProt Q15431 206-362); assay: SEC-MALS; purified proteins or co-expressed, purified complexes at 5-20 mg/ml; Superdex 200 Increase 10/300 GL, 20 mM Tris pH 8.0, 150 mM KCl, 2 mM DTT; conditions: both partners purified
T4 construct: SYCP1 tetrameric core (αNcore), amino-acids 206-362; also called MBP-SYCP1 (amino-acids 206-362); source: E. coli BL21(DE3), co-expressed with SYCE3 constructs; in lysate for the pull-down, co-purified (amylose, anion exchange, SEC); not shown: MBP, N-terminal, kept
T4 sequence (looked up): B6 chain

MBP-SYCP1αN = biological target: T5, MBP-SYCP1αN (UniProt Q15431 101-362); assay: SEC-MALS; MBP-SYCP1αN-His-SYCE3 complex on a Superose 6 increase 10/300 GL column; conditions: both partners purified
T5 construct: SYCP1αN, amino-acids 101-362; source: E. coli BL21(DE3), co-expressed with His-SYCE3, complex purified
T5 sequence (looked up): B2 chain

B1
stoichiometry N [1]: 4

B2
binding result [1]: binds

B3
stoichiometry N (SYCP1αNcore [2]): 2 SYCP1 chains per SYCE3 chain

B4
stoichiometry N (SYCP1 αCore-ΔNtip): 2 SYCP1 chains per SYCE3 chain
stoichiometry N (SYCP1αNcore [2]): 2 SYCP1 chains per SYCE3 chain
stoichiometry N (SYCP1αN): 2 SYCP1 chains per SYCE3 chain (2:1 species) and 2 SYCP1 chains per SYCE3 chain (4:2 species: 4 SYCP1, 2 SYCE3)
stoichiometry N (SYCP1αN ΔNtip): 2 SYCP1 chains per SYCE3 chain
stoichiometry N (SYCP1αN V105E L109E): 2 SYCP1 chains per SYCE3 chain
stoichiometry N [1]: 2
Kd [3]: 21.8 µM
Kd (SYCP1αNcore [4]): 170 nM

B5
stoichiometry N (MBP-SYCP1αNcore): 2 SYCP1 chains per SYCE3 chain
stoichiometry N (MBP-SYCP1αN): 2 SYCP1 chains per SYCE3 chain (2:1 species) and 2 SYCP1 chains per SYCE3 chain (4:2 species: 4 SYCP1, 2 SYCE3)

B6
stoichiometry N [1]: 4
